Data reported in article PMC2173303.

Target: HSF1 (Homo sapiens, UniProt Q00613 1-529)
Assay: EMSA

HSF1, sequence (Q00613 whole entry): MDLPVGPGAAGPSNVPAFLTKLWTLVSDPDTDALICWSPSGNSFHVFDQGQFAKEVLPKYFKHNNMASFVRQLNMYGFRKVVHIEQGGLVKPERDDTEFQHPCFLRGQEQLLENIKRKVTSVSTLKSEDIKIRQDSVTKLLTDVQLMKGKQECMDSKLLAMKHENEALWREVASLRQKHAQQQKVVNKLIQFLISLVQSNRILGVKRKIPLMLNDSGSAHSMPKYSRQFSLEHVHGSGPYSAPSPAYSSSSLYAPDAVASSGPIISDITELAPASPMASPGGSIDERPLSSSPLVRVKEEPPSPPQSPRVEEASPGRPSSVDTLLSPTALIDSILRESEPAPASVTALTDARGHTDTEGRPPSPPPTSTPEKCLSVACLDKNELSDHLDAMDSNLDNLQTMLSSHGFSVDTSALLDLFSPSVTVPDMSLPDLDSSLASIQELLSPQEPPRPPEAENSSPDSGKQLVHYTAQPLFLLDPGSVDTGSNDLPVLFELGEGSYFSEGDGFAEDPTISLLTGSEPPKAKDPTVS

B1: HSE probe (dsDNA)
DNA 1: TCGGCTGGAATATTCCCGACCTGGCAGCCGA
DNA 2: TCGGCTGCCAGGTCGGGAATATTCCAGCCGA
binding result: binds
